Data taken from US20220306758A1 (Regeneron, published 2022).
Where a chain is given by its changes, count along the chain named.

T1: mouse BCMA-MFC (BCMA with C-terminal mFc tag) (mouse)
T1 construct: Tested at 30 nM only
T1 chain: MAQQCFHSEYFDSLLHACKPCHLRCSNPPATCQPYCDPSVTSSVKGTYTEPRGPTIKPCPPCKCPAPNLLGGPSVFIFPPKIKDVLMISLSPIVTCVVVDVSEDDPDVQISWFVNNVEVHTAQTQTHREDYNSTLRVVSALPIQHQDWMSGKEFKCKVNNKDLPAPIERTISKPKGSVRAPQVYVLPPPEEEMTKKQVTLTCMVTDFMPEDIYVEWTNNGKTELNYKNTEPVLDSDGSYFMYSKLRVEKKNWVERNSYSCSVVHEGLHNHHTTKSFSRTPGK

T2: human BCMA-MMH (extracellular domain of human BCMA with C-terminal myc-myc-hexahistidine tag) (human)
T2 construct: Monomeric antigen; the entry holds the ectodomain and the myc-myc-His tag; also called hBCMA.mmh; hBCMA.mmH
T2 chain: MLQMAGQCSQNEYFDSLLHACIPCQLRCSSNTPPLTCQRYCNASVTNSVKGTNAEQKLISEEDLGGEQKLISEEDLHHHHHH

T3: human BCMA-MFC (extracellular domain of human BCMA with C-terminal mFc tag) (human)
T3 construct: also called hBCMA.mFc
T3 chain: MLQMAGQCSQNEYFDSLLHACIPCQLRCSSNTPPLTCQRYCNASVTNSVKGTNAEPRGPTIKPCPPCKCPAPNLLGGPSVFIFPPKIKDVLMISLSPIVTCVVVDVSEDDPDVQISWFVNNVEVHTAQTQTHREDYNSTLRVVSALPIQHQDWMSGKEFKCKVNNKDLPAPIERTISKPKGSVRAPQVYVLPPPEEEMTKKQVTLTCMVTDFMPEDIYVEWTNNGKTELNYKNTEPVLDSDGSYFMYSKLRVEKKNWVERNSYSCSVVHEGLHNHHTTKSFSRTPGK

T4: human BCMA on cells (endogenous, on multiple myeloma and lymphoma cell lines) (human, UniProt Q02223 1-184)
T4 sequence: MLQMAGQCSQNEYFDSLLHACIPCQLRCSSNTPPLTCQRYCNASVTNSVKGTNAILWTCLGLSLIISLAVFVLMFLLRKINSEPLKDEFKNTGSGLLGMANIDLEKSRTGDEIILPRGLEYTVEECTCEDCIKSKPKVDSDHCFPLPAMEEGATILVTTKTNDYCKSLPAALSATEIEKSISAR

B1: mAb16732 (REGN4514) (antibody, V domains shown)
VH: EVQLVESGGGLVQPGRSLRLSCAASGFTFDDYAMHWVRQAPGKGLEWVSGISWNSGNMGYADSVKGRFTISRDNAKNSLFLQMHSLRAEDTAFYYCAKVRLTAFDFWGQGTLVTVSS
VL: DIQMTQSPSSLSASVGDRVTITCRTSQSIGNYLNWFQQKPGKAPKLLIYTASSLQNGVPSRFTGSGSGTDFTLTISSLQPEDFVIYYCQQSFSTPYTFGQGTKLEIK
notes: Anti-BCMA monoclonal antibody; human Fc (captured by anti-human Fc)
B2: mAb21581, bivalent anti-BCMA antibody (parent of REGN5458) (antibody, V domains shown)
VH: EVQLVESGGGLVQPGGSLRLSCAASGFTFSNFWMTWVRQAPGKGLEWVANMNQDGSEKYYVDSVKGRFTISRDNAKSSLYLQMNSLRAEDTAVYYCARDREYCISTSCYDDFDYWGQGTLVTVSS
VL: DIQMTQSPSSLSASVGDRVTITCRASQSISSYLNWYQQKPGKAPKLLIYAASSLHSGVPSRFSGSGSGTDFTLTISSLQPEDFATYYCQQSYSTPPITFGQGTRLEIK
B3: mAb16747 (REGN4515) (antibody, V domains shown)
VH: QVQLVESGGGLVKPGGSLRLSCAASGFTFSDYYISWIRQAPGKGLEWVSYISSSGSSIKYADSVKGRFTISRDNAKNSLYLQMNSLRAEDTAVYYCAREGGNYGMDVWGQGTTVTVSS
VL: DIQMTQSPSSVSASVGDRVTITCRASQGINNWLVWYQQKPGKAPKLLIYAATSLQSGVPSRFSGSGSGTDFTLTISSLQPEDFATYYCQQANSFPPTFGQGTKLEIK
notes: as for B1
B4: mAb16711 (antibody, V domains shown)
VH: QVQLVESGGGVVQPGRSLRLSCAASGFTFSTYGIHWVRQAPGKGLEWVAVILHDGSSNYYAESVKGRFIISRDNSKNTLYLQMNSLRAEDTALYYCTKRYSEAAGPNWFDPWGQGTLVTVSS
VL: DIQMTQSPSSVSASVGDRVTITCRASRGISSWLAWYQQKPGKAPKLLIHAASSLQSGVPSRFSGSGSGTDFTLTISSLQPEDFATYYCQQAISFPFTFGPGTKVDIK
notes: as for B1
B5: mAb16716 (antibody, V domains shown)
VH: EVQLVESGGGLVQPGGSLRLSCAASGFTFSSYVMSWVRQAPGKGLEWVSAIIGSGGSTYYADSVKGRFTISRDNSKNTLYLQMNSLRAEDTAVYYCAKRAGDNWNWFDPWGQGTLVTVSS
VL: B4 VL with V15L, R27Q, Q38R, H49Y, T69A, I92K, F94V
notes: as for B1

Key:
[1] = target: T5, monkey BCMA-MFC (monkey BCMA with C-terminal mFc tag) (monkey); experiment: SPR, Biacore, mAb captured by anti-hFc, 25 C
T5 construct: also called mfBCMA.mFc
Method: (§1) The CM5 Biacore sensor surface was derivatized by amine coupling with a monoclonal mouse anti-human Fc antibody (GE, #BR-1008-39) to capture purified anti-BCMA mAbs and anti-BCMA×anti-CD3 bispecific mAbs. All Biacore binding studies were performed in a buffer composed of 0.01M HEPES pH 7.4, 0.15M NaCl, 3 mM EDTA, 0.05% v/v Surfactant P20 (HBS-ET running buffer). […] Antigen samples were then injected over the anti-BCMA and anti-BCMA×anti-CD3 bispecific mAbs captured surfaces at a flow rate of 30 μL/minute. Antibody-reagent association was monitored for 5 minutes while dissociation in HBS-ET running buffer was monitored for 10 minutes. All of the binding kinetics experiments were performed at 25° C. Kinetic association (kₐ) and dissociation (kd) rate constants were determined by fitting the real-time sensorgrams to a 1:1 binding model using Scrubber 2.0c curve fitting software. Binding dissociation equilibrium constants (KD) and dissociative half-lives (t½) were calculated from the kinetic rate constants as: […]

[2] = target: T1, mouse BCMA-MFC (BCMA with C-terminal …); experiment: SPR, Biacore, mAb captured by anti-hFc, 25 C
Method: as §1

[3] = target: T2, human BCMA-MMH (extracellular domain of …); experiment: SPR, Biacore, mAb captured by anti-hFc, 25 C
Method: as §1

[4] = target: T3, human BCMA-MFC (extracellular domain of …); experiment: SPR, Biacore, mAb captured by anti-hFc, 25 C
Method: as §1

[5] = target: T4, human BCMA on cells (endogenous, on …); experiment: cell-based or functional assay
[6] = target: T4, human BCMA on cells (endogenous, on …); experiment: cell-based or functional assay; remark: listed apart in the source
[7] = target: T4, human BCMA on cells (endogenous, on …); experiment: cell-based or functional assay; remark: listed apart in the source
[8] = target: T4, human BCMA on cells (endogenous, on …); experiment: cell-based or functional assay; remark: listed apart in the source
[9] = target: T6, monkey BCMA-MMH (monkey BCMA with C-terminal myc-myc-hexahistidine tag) (monkey); experiment: SPR, Biacore, mAb captured by anti-hFc, 25 C
T6 construct: The words 'extracellular domain' stand before human BCMA in the sentence and are read as applying to the monkey construct too; also called mfBCMA.mmh
Method: as §1

| Binder | 30 nM mfBCMA.mFc Bind (RU) [1] [RU] | 30 nM mfBCMA.mFc Bind (RU) (mouse BCMA-MFC by the table's title) [2] | Kd [2] [nM] | koff [2] [s⁻¹] | kon [2] [M⁻¹ s⁻¹] | t½ [2] [min] | 90 nM hBCMA.mmh Bind (RU) [3] [RU] | Kd [3] [nM] | koff [3] [s⁻¹] | kon [3] [M⁻¹ s⁻¹] | t½ [3] [min] | 30 nM hBCMA.mFc Bind (RU) [4] [RU] | Kd [4] [nM] | koff [4] [s⁻¹] | kon [4] [M⁻¹ s⁻¹] | t½ [4] [min] | MFI fold change over cells incubated in media only, NCI-H929, 18 h with 67 nM antibody, then stained with the same antibody [5] [fold] | MFI fold change over cells incubated in media only, NCI-H929, 18 h with 667 nM antibody, then stained with the same antibody [5] [fold] | MFI fold change over cells incubated in media only, Molp8, 18 h with 67 nM antibody, then stained with the same antibody [6] [fold] | MFI fold change over cells incubated in media only, Molp8, 18 h with 667 nM antibody, then stained with the same antibody [6] [fold] | other results |
| --- | --- | --- | --- | --- | --- | --- | --- | --- | --- | --- | --- | --- | --- | --- | --- | --- | --- | --- | --- | --- | --- |
| B1 | 40.3 | 110 | 0.677 | 0.000269 | 397000 | 43 | 25.3 | 2.69 | 0.00285 | 1.06e+06 | 4.1 | 124 | 0.0422 | 4.53e-05 | 1.07e+06 | 255 |  |  |  |  | Kd [1]: 14.7 nM; koff [1]: 0.00724 s⁻¹; kon [1]: 492000 M⁻¹ s⁻¹; t½ [1]: 1.6 min |
| B2 |  |  |  |  |  |  |  |  |  |  |  |  |  |  |  |  | 1.2 | 1.4 | 2.3 | 3.7 | MFI fold change over cells incubated in media only, U266, 18 h with 67 nM antibody, then stained with the same antibody [7]: 1.8 fold; MFI fold change over cells incubated in media only, U266, 18 h with 667 nM antibody, then stained with the same antibody [7]: 2.3 fold; MFI fold change over cells incubated in media only, MM1S, 18 h with 67 nM antibody, then stained with the same antibody [8]: 7.3 fold; MFI fold change over cells incubated in media only, MM1S, 18 h with 667 nM antibody, then stained with the same antibody [8]: 7 fold |
| B3 | 101 | 108 | 4.42 | 0.00418 | 947000 | 2.8 | 31.4 | 2.84 | 0.00247 | 869000 | 4.7 | 146 | 0.0633 | 8.95e-05 | 1.41e+06 | 129 | 1.8 | 2.1 | 2.2 | 0.6 | MFI fold change over cells incubated in media only, U266, 18 h with 67 nM antibody, then stained with the same antibody [7]: 1.5 fold; MFI fold change over cells incubated in media only, U266, 18 h with 667 nM antibody, then stained with the same antibody [7]: 1.7 fold; Kd [1]: 3.37 nM; koff [1]: 0.00716 s⁻¹; kon [1]: 2.13e+06 M⁻¹ s⁻¹; t½ [1]: 1.6 min |
| B4 | 0.9 | 90 | 1.02 | 0.0011 | 1.07e+06 | 10.5 | 22.2 | 1.73 | 0.00347 | 2.01e+06 | 3.3 | 114 | 0.103 | 0.00019 | 1.85e+06 | 60.8 | 2.8 | 2.1 | 3.5 | 3 | MFI fold change over cells incubated in media only, U266, 18 h with 67 nM antibody, then stained with the same antibody [7]: 2.2 fold; MFI fold change over cells incubated in media only, U266, 18 h with 667 nM antibody, then stained with the same antibody [7]: 2.2 fold; binding result [1]: no binding (tested: 30 nM); 90 nM mfBCMA.mmh Bind (RU) [9]: -0.5 RU |
| B5 |  | 33.4 | 18.8 | 0.00385 | 205000 | 3 | 26.4 | 3.56 | 0.00299 | 841000 | 3.9 | 120 | 0.0968 | 8.35e-05 | 862000 | 138 |  |  |  |  | 90 nM mfBCMA.mmh Bind (RU) [9]: 0.8 RU; binding result [9]: no binding (tested: 90 nM) |
